Data on eleven molecules can be found in patent publication US12686723 (SHANGHAI ACEMAB, dated 2026).

As a reminder, the Kd is the concentration at which binding is half-saturated. Low readings indicate higher affinity, high ones lower affinity. One may read the koff as the rate constant with which the complex falls apart. Low readings indicate slow dissociation, high ones fast dissociation. In general, kon refers to the rate constant with which the complex forms. Read a high kon as faster complex formation.

Substitutions are numbered along the chain they refer to.

To fix the notation:
T1: human BCMA antigen (6His tag, product number CC28, Novoprotein) (human, UniProt Q02223 1-54)
T1 construct: Bought reagent; not shown: 6His tag
T1 sequence (looked up): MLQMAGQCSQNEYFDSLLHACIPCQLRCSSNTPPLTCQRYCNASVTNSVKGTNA

T2: commercial recombinant human BCMA protein (Fc tag, Cat. No. CS79, Novoprotein) (human, UniProt Q02223 1-54)
T2 construct: Bought reagent; also called Human recombinant BCMA protein; BCMA antigen (Novoprotein cat: CS79); not shown: Fc tag
T2 sequence (looked up): T1 sequence (looked up)

B1: anti-human BCMA monoclonal antibody 7E11 (antibody, human IgG1, kappa, V domains shown)
VH: EVQLVESGGGLVQPGGSLRLSCAASGFTFSYYDMHWVRQGTGKGLEWVSGIGTSGDTYYPDSVKGRFTISRENAKNSLNLQMNSLRDGDTAMYYCARGPYYYNSSGYYSYDALDIWGQGTMVTVTS
VL: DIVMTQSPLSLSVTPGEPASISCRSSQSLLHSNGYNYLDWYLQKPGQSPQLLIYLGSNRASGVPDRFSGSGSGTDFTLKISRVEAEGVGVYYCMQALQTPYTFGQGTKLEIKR
notes: Tested as hybridoma supernatant (ELISA) or Protein G-purified hybridoma antibody (SPR)
B2: anti-human BCMA monoclonal antibody 18D10 (antibody, human IgG1, kappa, V domains shown)
VH: EVRLVESGGGLVQPGRSLRLSCAASGFTSNDYAMHWVRQAPGRGLEWVSGISWNSDSIGYADSVKGRFTISRDNAKNSLYLQMNSLRTEDTALYYCATVVSAYFDYWGQGTLVTVSS
VL: DIQMTQSPSSLSASVGDRVTITCRTSQSISTYLNWYQQKPGKAPKLLIYAASSLKSGVPSRFSGSGSGTDFTLTISSLQPEDFATYFCQGSYIIPLTFGGGTRVEIKR
notes: Tested as hybridoma supernatant (ELISA) or Protein G-purified hybridoma antibody (SPR); constant region of the tested hybridoma material is uncertain (anti-mouse IgG secondary used)
B3: anti-human BCMA monoclonal antibody 11B10 (antibody, human IgG1, kappa, V domains shown)
VH: QVQLVQSGAEVKKPGASVKVSCKASGYTFTSYAMHWVRQAPGQRLEWMGWINTGNGNTKYSQKFQGRVTITRDTSASTAYMELSSLRSEDTAVYYCARGGSITGNIFYYYYYMDVWGKGTTVTVAS
VL: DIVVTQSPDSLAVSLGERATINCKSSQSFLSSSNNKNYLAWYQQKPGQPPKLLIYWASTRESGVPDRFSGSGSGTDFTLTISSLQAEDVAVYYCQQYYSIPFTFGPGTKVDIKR
notes: as for B2
B4: anti-human BCMA monoclonal antibody 15A7 (antibody, human IgG1, kappa, V domains shown)
VH: EVQLVESGGGLVQPGGSLRLSCEASGFTFDDCAMHWVRQTPGKGLEWVSGISWNSDTMGYADSVKGRFIISRDNAKNSLYLQMNSLRVEDTALYHCTRVRAAVFDYWGQGVLVTVSS
VL: DIHMTQSPSSLSASVGDRVTITCRASQSISSYLNWFQQKPGKAPTVLIYAASSLQSGVSSRFSGRGSGADFTLTISSLQPEDFASYFCQQSFSPLYIFGQGTKVEIKR
notes: as for B2
B5: anti-human BCMA monoclonal antibody 20A9 (antibody, human IgG1, kappa, V domains shown)
VH: QVQLVQSGAEVKKPGASAKVSCKASGYTFTSYAMQWVRQAPGQRLEWMGWINAGNGNIKYSQKFQGRVTITRDTSASTAYMELSSLRSEDTAVYYCARGGRLELDVYYYFYYMDVWGKGTTVTVSS
VL: DIVMSQSPDSLAVSLGERTTINCKSSQSVLHSSQNKNYLAWYQQKPGQPPNPLIHWASTRESGVPDRFSGSGSGTDFTLTISSLQAEDVAVYYCQQYYRVPFTFGPGTKVDIKR
notes: as for B2
B6: anti-human BCMA monoclonal antibody 15H6 (antibody, human IgG1, kappa, V domains shown)
VH: B5 VH with I58T, V106I
VL: B5 VL
notes: as for B2
B7: anti-human BCMA monoclonal antibody 11G1 (antibody, V domains shown)
VH: EVQLVESGGGLVQPGRSLRLSCEASGFTFDDYAMHWVRQPPGKGLEWVSGISWNSDNIGYADSVKGRFTISRDNAKNSLYLQMNSLRAEDTALYYCAKIQSGSSFDYWGQGTLVTVSS
VL: DIQMTQSPSSLSASVGDRVTITCRASQSIINFLNWYQQKPGKAPKLLIYGASNLQSGVPSRFSGSGSGTDFTLTISSLQPEDFATYCCQQSSSIPLTFGGGTKVEIKR
notes: as for B2
B8: anti-human BCMA monoclonal antibody 23C4 (antibody, human IgG1, kappa, V domains shown)
VH: EVQLVESGGGLVQPGRSLRLSCAASGFTFADHAMHWVRQAPGKGLEWVSGISWNSDHIGYADSVKGRFTISRDNAKNSLYLQMNSLRPEDTALYYCAKDIFSPTGDGYWGQGTLVTVSS
VL: DIQMTQSPSSLSASVGDRVTITCRASQDIRNNLGWFQQKPGKTPKRLIYAASSLQSGVPSRFSGSGSGTEFTLIISSLQPEDFATYYCLHHNSYPPTFGQGTKVEIKR
notes: as for B2
B9: anti-human BCMA monoclonal antibody 27A7 (antibody, human IgG1, kappa, V domains shown)
VH: B8 VH with A30D, D56V, P88A, G107D
VL: B8 VL with I74T
notes: as for B2
B10: anti-human BCMA monoclonal antibody 31F5 (antibody, V domains shown)
VH: EVQLVESGGGLVQPGRSLRLSCAASGFTFDDYAMHWVRQAPGKGLEWVSGISWNSDNIAYADSVKGRFTISRDNAENSLYLQMNSLRTEDTAIYYCAKVAAATFDYRGQGTLVTVSS
VL: DIQMTQSPSSLSASVGDRVTITCRASQSISSYLNWYQQKPGKAPKLLIFAASSLQSGVPSRFSGSGSGTDFTLTISSLQPEDFATYSCQQSFSIPFTFGPGTKVDIKR
notes: as for B2
B11: anti-human BCMA monoclonal antibody 20A2 (antibody, human IgG1, kappa, V domains shown)
VH: QIQLVQSGAEVKKPGASVKVSCKASGYTFTAYYLHWVRQSPGHGLEWMGRIYPNSGDTNYAQKFQGRVTMTRDTSINTAYMELSRLRSDDTALYYCARGFNWNYEGGFDIWGQGTMVTVSS
VL: DVVMTQSPLSLSVTLGQPASISCRSGQSLVYSDGNTYLNWFQQRPGQSPRRLIYKLSSRDSGVPDRFSGSGSGTDFTLKISRMEAEDVGVYYCMQRTHWPPTFGQGTKVEIKR
notes: as for B2

The first assay concerns the target T1, human BCMA antigen (6His tag, product …). In words: SPR, Biacore T200, BCMA-6His on chip, antibody as analyte. From the text:
Example 8: Affinity Analysis of Anti-Human BCMA Monoclonal Antibody Binding to Human BCMA The kit, consumables and instruments used in this example were purchased from GE Healthcare; According to the instructions provided, human BCMA antigen (6His tag, product number CC28, Novoprotein) is conjugated to the chip surface, and then HBS-EP+ buffer solution is double-diluted to prepare different concentrations of the antibody to be analyzed, and meanwhile set the 0 concentration point and the quality control concentration point; According to the manufacturer's standard setting procedure of Biacore T200, the flow cell that captures ligand is used as the detection channel, the flow cell of un-captured ligand as the reference channel, and the HBS-EP+ buffer solution as the mobile phase, and different concentrations of the antibody solution to be analyzed are injected respectively; The SPR signal is collected by the Biacore T200 Control software, and then the data is processed by the Biacore T200 Evaluation analysis software; Finally, the Ka, Kd and KD values are calculated for the kinetic analysis or steady-state analysis of the obtained kinetic curves, and the results are shown in Table. 2.
(In general: SPR reads the build-up and loss of mass on a sensor chip optically.)
Regarding B1, the Kd is 0.0504 nM, the koff was 2.57e-05 s⁻¹ and the kon amounted to 510000 M⁻¹ s⁻¹.

B2 yielded a Kd of 0.0477 nM, a koff of 2.43e-05 s⁻¹ and a kon of 510000 M⁻¹ s⁻¹.

Take B3: binding was put at a Kd of 0.253 nM, the off-rate constant (koff) was 0.000269 s⁻¹ and the kon was found to be 1.06e+06 M⁻¹ s⁻¹.

B4: binding was put at a Kd of 0.125 nM, the koff is 6.02e-05 s⁻¹ and the kon was 480000 M⁻¹ s⁻¹.

B5 showed a dissociation constant (Kd) of 0.0409 nM, an off-rate (koff) of 2.34e-05 s⁻¹ and a kon of 573000 M⁻¹ s⁻¹.

As for B6, binding was put at a Kd of 0.0885 nM, the koff amounted to 4.28e-05 s⁻¹ and the kon stood at 483000 M⁻¹ s⁻¹.

In the case of B7, the Kd worked out at 0.0345 nM, the koff was 1.63e-05 s⁻¹ and the kon amounted to 472000 M⁻¹ s⁻¹.

As for B8, the Kd stood at 0.146 nM, the off-rate constant (koff) was determined as 7.01e-05 s⁻¹ and the kon is 481000 M⁻¹ s⁻¹.

B9 registered a Kd of 0.0117 nM, a koff of 7.22e-05 s⁻¹ and an association rate constant (kon) of 6.18e+06 M⁻¹ s⁻¹.

B10 came in with a Kd of 0.0483 nM, a koff of 2.78e-05 s⁻¹ and a kon of 576000 M⁻¹ s⁻¹.

B11 returned a Kd of 0.0656 nM, a koff of 5.29e-05 s⁻¹ and a kon of 807000 M⁻¹ s⁻¹.

A further assay has as its target T2, commercial recombinant human BCMA …. The experiment in a line: ELISA, BCMA-Fc (CS79) coated on plate, hybridoma supernatant diluted 1:50, anti-mouse IgG-HRP. The protocol: Dilute BCMA antigen (Novoprotein cat: CS79) with PBS to 0.5 ng/μl; add 100 μl/well of antigen to a 96-well flat-bottom ELISA plate (Maxisorp), seal with cling film, and store at 4° C. overnight; pour off the antigen the next day. After that, wash with PBS (200 μl/well), pour off the PBS, pat dry on absorbent paper and add 200 μl of blocking solution to each well and block at room temperature for 2 hours. After blocking, pour off the blocking solution and pat dry on absorbent paper; add 50 μl of HRP-conjugated goat anti-mouse IgG secondary antibody diluted in diluent, place at room temperature for 1 hour, then pour off the liquid and wash 5 times with washing solution (200 μl/well), finally pour off the washing solution and pat dry on absorbent paper; add 50 μl/well of TMB-hydrogen peroxide urea solution substrate solution and place it at room temperature for 3-5 minutes, add 50 μl/well of 0.25M sulfuric acid to stop the reaction, the optical density was measured by obtaining the absorbance with a 450 nm filter under a multifunctional microplate reader.
(In general: ELISA stands for enzyme-linked immunosorbent assay.)
Turning to B1, the OD450 came out at 2.3.

Regarding B2, the OD450 came to 2.4.

Regarding B3, the OD450 amounted to 2.55.

With B4, the OD450 came out at 2.12.

For B5, the OD450 is 2.2.

On to B6, for which the OD450 worked out at 2.49.

Turning to B7, the OD450 turned out to be 2.71.

Consider B8, for which the OD450 was found to be 2.86.

On to B9, for which the OD450 was 2.59.

For B10, the OD450 was found to be 3.
